From patent publication US20220281980A1 (Bristol-Myers Squibb, published 2022)
Changes are numbered by the printed parent chain.

T1: recombinant soluble human MICA*009 antigen (human, UniProt Q29983 24-307)
T1 construct: also called huIMICA-his allele *009
T1 chain: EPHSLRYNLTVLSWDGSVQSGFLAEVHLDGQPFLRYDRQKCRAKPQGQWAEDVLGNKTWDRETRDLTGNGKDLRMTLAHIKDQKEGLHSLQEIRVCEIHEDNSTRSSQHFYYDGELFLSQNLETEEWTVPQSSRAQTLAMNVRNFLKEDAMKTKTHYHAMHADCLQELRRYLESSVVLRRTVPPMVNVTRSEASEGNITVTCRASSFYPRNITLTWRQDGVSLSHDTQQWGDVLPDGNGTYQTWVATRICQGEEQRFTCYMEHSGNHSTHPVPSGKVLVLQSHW

T2: recombinant soluble human MICA*004 antigen (human, UniProt Q29983 24-307)
T2 construct: also called huIMICA-his allele *004
T2 chain: T1 chain with L122V, T181R, T215S, W216T

T3: recombinant soluble human MICA*008 antigen (human, UniProt Q29983 24-307)
T3 construct: also called huIMICA-his allele *008; recombinant soluble MICA (allele 8)
T3 chain: T1 chain with S175G, T213I, Q251R

T4: recombinant soluble human MICA*002 antigen (human, UniProt Q29983 24-307)
T4 construct: also called huIMICA-his allele *002
T4 chain: T1 chain with W14G, Y36C, V129M, E173K, S175G, S206G, R210W, T215S

T5: human MICA*004 expressed on CHO cells (human, UniProt Q29983 24-383)
T5 construct: also called MICA allele 004
T5 chain: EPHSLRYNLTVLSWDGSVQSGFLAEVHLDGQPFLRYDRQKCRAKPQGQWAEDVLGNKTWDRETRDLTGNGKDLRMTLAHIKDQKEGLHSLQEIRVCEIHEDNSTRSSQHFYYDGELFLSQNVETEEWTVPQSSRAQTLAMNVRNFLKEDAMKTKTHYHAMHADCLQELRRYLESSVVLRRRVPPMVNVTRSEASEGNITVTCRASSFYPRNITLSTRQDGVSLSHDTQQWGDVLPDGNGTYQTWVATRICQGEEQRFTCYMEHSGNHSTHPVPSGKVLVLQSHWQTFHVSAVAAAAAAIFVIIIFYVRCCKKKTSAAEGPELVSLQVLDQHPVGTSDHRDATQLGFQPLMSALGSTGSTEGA

B1: 19G6 (antibody, V domains shown)
VH: QVQLVESGGGVVQPGRSLRLSCAASGFTFSNYAMHWVRQAPGEGLEWVALIWYDGSNKFYGDSVKGRFTISRDNSKNTLYLQMNSLSAEDTAVYYCAREGSGHYWGQGTLVTVSS
VL: AIQLTQSPSSLSASVGDRVTITCRASQGISSALAWYQQKPGKVPKSLIYDASSLESGVPSRFSGSGSGTDFTLTISSLQPEDFATYYCQQFNSYPITFGQGTRLEIK
notes: Hybridoma antibody from human IgG transgenic mice, parent of MICA.36; also called 19G6 mAb; hybridoma 19G6
B2: 71C2 (antibody, V domains shown)
VH: EVQLVESGGGLVQPGRSLRLSCAASGFTFNNYAMHWVRQAPGKGLEWVSGITWNSDSIGYADSVKGRFTISRDNAKNSLYLQMNSLRAEDTALYYCAKDSVLLWFGGMDVWGQGTTVTVSS
VL: not shown
notes: Hybridoma antibody
B3: MICA.2 (antibody, human IgG1, kappa, V domains shown)
VH: EVQLVESGGGLVQPGGSLRLSCAASGFTFSTYSMNWVRQAPGKGLEWVSYISYRSRTIYYADSVKGRFTISRDNARNSLYLQMNSLRDEDTAVYYCARWGYGSGGFDYWGQGTLVTVSS
VL: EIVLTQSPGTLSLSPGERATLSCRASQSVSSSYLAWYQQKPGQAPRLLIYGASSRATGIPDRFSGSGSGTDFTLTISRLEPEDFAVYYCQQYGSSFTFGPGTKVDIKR
notes: 3F5 variable regions on human IgG1f and human kappa constant regions, made in CHO-S cells; also called 3F5; recombinant antibody of 3F5
B4: MICA.36 (antibody, V domains shown)
VH: B1 VH
VL: B1 VL
notes: it says that the name implies no specific constant region; Radioiodinated in the Scatchard assay; also called MICA.36 antibody
B5: 24G11 (antibody, V domains shown)
VH: EVQLVQSGAEVKKPGESLKISCKGSGYSFTNYWIGWVRQMPGKGLEWLGIIHPGDSYTRYSPSFQGQVTISADKSISTAYLQWSSLKASDTAIYYCAREGIAATPFDYWGQGTLVTVSS
VL: EIVLTQSPATLSLSPGERATLSCRASQSVSSYLAWFQQKPGQAPRLLIYDASNRATGIPARFSGSGSGTDFTLTISSLEPEDFAVYYCQQRSNWPPTFGQGTKVEIK
notes: also called MICA.54; 24G11 (MICA.54)

Biological target: T1, recombinant soluble human MICA*009 …
Test: SPR (Biacore 3000), antibody captured on Protein G chip, huMICA-his analyte
Method: (§1) Kinetics and affinity of anti-MICA/B antibodies MICA.2, 19G6, 16A5, and 71C2 towards human MICA alleles (huIMICA-his allele *002, *004, *008, and *009) were also determined on a BIACORE 3000® instrument using the following conditions: [0571] Running Buffer: HES-EP running buffer [0572] Chip: CM5 Protein G Chip Fc1: Blank. Fc2-4: ˜200Rus [0573] Ab: 5 ug/mL, 10 uL @ 10 uL/min [0574] Ag binding: 5 min association, 7 min dissociation @ 25 uL/min, [0575] Regeneration: Glycine 1.7, 10 uL @ 100 uL/min followed by 60s wash by HES-EP

In order of rising Kd:
1. B1  13.7 nM
2. B3  61.5 nM
3. B2  1400 nM

Biological target: T2, recombinant soluble human MICA*004 …
Test: as above
Method: as §1

In order of rising Kd:
1. B1  9.78 nM
2. B3  54.6 nM
3. B2  262 nM

Biological target: T3, recombinant soluble human MICA*008 …
Test: as above
Method: as §1

In order of falling Kd:
1. B3  40.5 nM
2. B2  39.9 nM
3. B1  5.23 nM

Biological target: T4, recombinant soluble human MICA*002 …
Test: as above
Method: as §1

In order of rising Kd:
1. B3  27.5 nM
2. B1  219 nM
3. B2  3010 nM

Biological target: T3, recombinant soluble human MICA*008 …
Test: BLI (Octet) sandwich binning on soluble MICA allele 8, row antibody captured; competitor (second antibody): MICA.2
Method: The binning experiments were performed on an Octet HTX instrument at 25° C. in HEPES buffered saline (10 mM HEPES pH 7.4, 150 mM NaCl, 0.05% v/v surfactant P20, and 1 mg/mL BSA). Anti-MICA/B antibodies and NKG2D-mFc were captured on anti-Fc tips and remaining capture sites were blocked with an excess of negative control IgG. Recombinant soluble MICA (allele 8) was bound and subsequent binding (“sandwiching”) of anti-MICA/B antibodies was tested.

In order of rising “simultaneous binding (0 = no, 1 = yes)” value:
1. B3  0
2. B4  1
3. B5  1

Biological target: T5, human MICA*004 expressed on CHO cells
Test: flow cytometry, transfected CHO cells

In order of falling EC50:
1. B5  518 nM
2. B2  26.2 nM
3. B1  11.4 nM
4. B3  2.94 nM

biological target: T6, cynomolgus monkey MICA/B clone #6 expressed on CHO cells (cynomolgus monkey); test: flow cytometry, transfected CHO cells
T6 construct: whole, on cells; also called cyno#6; CHO-cyno MICA clone #6

In order of rising EC50:
1. B3  4.01 nM
2. B1  22 nM
3. B2  232 nM
4. B5  331 nM
